Data from the supplement of paper PMC9170038.

System: K4 kissing-loop RNA reporter
Experiment: apparent KD of K4 kissing-loop reporter; higher = weaker reporter binding
Details: Eterna round: R107
Procedure: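 RNA-MaP round R107: designed RNA switches with theophylline, tryptophan, arginine or FMN aptamers are transcribed on-chip within common flanks. They are titrated with a labelled K4 kissing-loop RNA reporter in RNA-MaP buffer (100 mM Tris pH 7.5, 80 mM KCl, 4 mM MgCl2), without ligand or with the indicated ligand. Median apparent KD per design.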

[1] = input ligand: theophylline 20 uM
[2] = input ligand: tryptophan 2.4 mM
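Note: bound reporter read as fluorescence of individual clusters on recovered sequencing chips by microscopy, with normalized cluster intensities fitted with a binding model.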

Sequence | apparent KD of K4 kissing-loop reporter (input ligand: FMN 200 uM) | apparent KD of K4 kissing-loop reporter (input ligand: arginine 13.2 mM) | apparent KD of K4 kissing-loop reporter (input ligand: none) | apparent KD of K4 kissing-loop reporter [1] | apparent KD of K4 kissing-loop reporter [2]
AGACUACUGAUAGGAUAUAACAUCCUAGUCGUAUACCGAAAGGUAUACGAAACCCUUCUAGUGAUGUUAGAAGGGUCGGUAGUCA [Omei KL FMN B Exc B v9] | 79.8 nM | 67.1 nM | 80.9 nM | 59.6 nM | 69.4 nM
AGACUUCACCGAAGGAGCGACGUGGCCUAGUGAUGUUAGGCACGAGAGAAAUCUCGUGUACGUCAGGUAGGUCGCGGUGAAGUCA [Omei KL Arginine B SS C v7] | 909 nM | 648 nM | 939 nM | 862 nM | 816 nM
AGAGUCGGCUGUGAUACCAGUCGUAUUACAACAUGUCGCAGUGAUGUUGCGAGAUAGGAUGACCCUUGGCAGCACUCAGUACGAU [Same State Theophylline B GF 8] | 347 nM | 277 nM | 421 nM | 503 nM | 323 nM
AGAGUUAAUUAGUCUUUUUUCACAUUAAGUCAGGAUAUCGUAUUUUCGAGAAGGGACACAUGCUAGUGAUGUUAGCUAUUUCUCA [JR_Nu3_ExcFMNA_Sub020] | 60.1 nM | 103 nM | 67.5 nM | 114 nM | 59.6 nM
AGAGUUAUGCGAGGAUAUGCAGUUAGUACUCAAAGAGUACUAACGCAGAGUGAUGUUCUGUGAAAUGCAGAAGGUGCAUAACUCA [Omei KL FMN B SS B v5] | 157 nM | 316 nM | 330 nM | 316 nM | 289 nM
AGCAUUUUCAGAAGGAGCGUGAAUUAUUCAUAAUUAUAUUAUACGAGUGAUGUUCGUAUUUCACAGGUAGGUCGCUGAUAUAGCA [JR_SSArginiB_Sub002] | 51.4 nM | 78.3 nM | 50.1 nM | 81.6 nM | 46.6 nM
AGCCGAAAGGCGAGUGCUGUCACUCCGGAAGGAGCGCUCGAAAGAGCAGGUAGGUCGCCGGAGUGAUGUUCCGGUGCAGCACUCA [Omei KL Arginine A Exc B v5] | 654 nM | 390 nM | 1250 nM | 1210 nM | 1100 nM
AGCCGUCUAAGUGAUGUUUAGGCAUGUCAGCGAGGACCGGUACGGCCGCCACUCGUGCUAUUGAGAUUUCGGGUAGCCCACGUAG [theeternabot_sameState_KL_Trp_A_20] | 288 nM | 187 nM | 271 nM | 125 nM | 163 nM
AGCGAGUGAUGUUCGCUGAUCAUGAGAAGUUAGGAUAUAUACUUGCAUAGAAGGAACUAUUUCAUGACAUUAGAGGCAGUAGUUC [FMN A SS t7] | 159 nM | 160 nM | 158 nM | 152 nM | 125 nM
AGCGGCCAGUCGGCCGCCACUCCAGGCAGUGAUGUUGCGAAGUUUCUACUAGAGUGAUGUUCUAAGAGGACCGGGACUGACGUAA [Exclusion Tryptophan B Gf 9] | 217 nM | 218 nM | 253 nM | 291 nM | 199 nM
AGCUAGUACGCAGGAUAUUGAACAUCAUUUAGUGAGAUCGAGUGAUGUUCGAUCACGACUUCAGUUCGAGAAGGGCGUACUAGCA [#02 K4 FMN B Same State] | 160 nM | 663 nM | 931 nM | 1070 nM | 861 nM
AGCUAGUGAAACUAGUUUAAACUAGGUGAAGGAGCGAUCGAAAGAUCAGGUAGGUCGCACCUAACUGAGUGAUGUUCAGGAAAUA [KL-SSArg-A4] | 67.1 nM | 54.3 nM | 70.7 nM | 66.7 nM | 61.3 nM
AGGAGCGUGCGAUGAAAAUCGCACGCUCCUCGAGGACCGGUACGGCCGCCACUCGCUCGCGCCGAGUGAUGUUCGGCCGGCGAAC [#2 Same State - Tryptophan A Attempt #8 (HarryS)] | 194 nM | 180 nM | 234 nM | 269 nM | 966 nM
AGGCACGAGCAAGGAUAUCGAGUAGAGUGAUGUUCUGCCUGGGUUGGCCCGAAAGGGCCUUCCCAGCGAGAAGGUGCUCGUGCCU [#2 Same State - FMN A Attempt #9 (HarryS)] | 222 nM | 588 nM | 766 nM | 492 nM | 863 nM
AGGCACGAGCAAGGAUAUUGAGUAGAGUGAUGUUCUGCCUGGGUUGGCUCGUAAGAGCCUUCUCAGCGAGAAGGUGCUCGUGCCU [#2 Same State - FMN A Attempt #23 (HarryS)] | 254 nM | 432 nM | 679 nM | 552 nM | 636 nM
AGGUACUACGGAAGGAGCGCACCAGUGAUGUUGGUGUGUGACCGUGACAUGGCAGUCAAGGUGCAGGUAGGUCGCCGUGGCCUUU [Anatartibe] | 143 nM | 113 nM | 146 nM | 122 nM | 115 nM
AGGUGCUACGGAAGGAGCGCACCAGUGAUGUUGGUGUGUGACCGUGACAUGGCAGUCAAGGUGCAGGUAGGUCGCCGUGGCCUUU [Geeseris] | 137 nM | 108 nM | 131 nM | 138 nM | 136 nM
AGGUGGGACGUAGGAUAUCCCUAAUGAUUUACUUCCUGGUUGCUACGCUUCCAGUGAUGUUGGAAGGGAGAAGGACGGGCGAGUU [Riatbive] | 365 nM | 217 nM | 213 nM | 217 nM | 222 nM
AGGUUUUGAUUAGGAUAUGCACUGACGACGAGAAUAUAGUGAUGUUAUAUAAUACGAAUUAGUAGAGUAGAAGGGAUUGAGGUUU [SSFMNB.X] | 422 nM | 307 nM | 348 nM | 390 nM | 286 nM
AGGUUUUGCGGAGGAUAUGCACUGAGGAGGAGAAUAUAGUGAUGUUAUAUAAGAGGAAGGAGAAGAGUAGAAGGCCGUGAGGUUU [SSFMNB.N] | 144 nM | 109 nM | 115 nM | 124 nM | 82.1 nM
AGUACGGUGCCGUUCAGAUCAACGUAUGAUACCAGCUCGUAUAUUAGCCCUUGGCAGCAUCCGAGUGAUGUUCGGAUUGUGCCAC [theeternabot_exclusion_KL_Theo_A_45] | 113 nM | 98 nM | 102 nM | 93.5 nM | 102 nM

Sequence | apparent KD of K4 kissing-loop reporter (input ligand: FMN 200 uM) | apparent KD of K4 kissing-loop reporter (input ligand: arginine 13.2 mM) | apparent KD of K4 kissing-loop reporter (input ligand: none) | apparent KD of K4 kissing-loop reporter [1] | apparent KD of K4 kissing-loop reporter [2]
AGUAGAGCAUCAGAUACCAGACAGAACUGAUGGUAAGGAGUGAUGUUCCUUAAUCAGCUUGUCCCUUGGCAGCUGAUAAUAGUCA [#13 K4 Theophylline B Same State] | 423 nM | 437 nM | 475 nM | 359 nM | 438 nM
AGUCCACUCUAAAGAGUGGACCUAAGGGAUACCAGUGAUGUUGGUCACCCUUGGCAGCCCUCUGUCAUCGAUAAAGAUGGCAGUA | 119 nM | 101 nM | 118 nM | 130 nM | 131 nM
AGUCUGUAUGACAUAAGUGAUGUUUAUGUUCGAGGACCGGUACGGCCGCCACUCGCAAAUGUAUGAUUUCACGUUUGUGCAAGUA [KL-XTryp-A #analogue] | 196 nM | 183 nM | 207 nM | 220 nM | 292 nM
AGUGACGUCGCGGCCGCCACUGAAAUGACAGUGAUGUUGUCAAAAGAAAGUGAUGUUAAGAAAUGCAGGACCGGGUGAUAGAAAA [semi-accidental] | 223 nM | 144 nM | 158 nM | 143 nM | 125 nM
AGUGAUGUAUGGCGGUGUGUCGCUUAAAAUCAGGAUAUAUAAACAAAUAGAAGGGAUGGCGGAGUGAUGUUCCGCCGGCCGCCAU [FMN A Exl V2] | 127 nM | 118 nM | 134 nM | 136 nM | 128 nM
AGUGAUGUGGGAAGGAGCGCUACAUCACUUCAGUGAUGUUGAAGUGAUGAAUUAGUGAUGUAGCAGGUAGGUCGCCUAGAUGUUA [KL-XARG-B12] | 76.3 nM | 38.5 nM | 58.3 nM | 60.8 nM | 51.3 nM
AGUGAUGUGGGAAGGAGCGCUAUAAGACUUCAGUGAUGUUGAAGUGCUGGUUUAGUGUUGUAGCAGGUAGGUCGCCUAGAUGUUA [KL-XARG-B11] | 293 nM | 239 nM | 275 nM | 196 nM | 218 nM
AGUGAUGUGGGAAGGAGCGGUAUAUGAGUUCAGUGAUGUUGAAGUGAUGCUGUAGUGAUGUGCCAGGUAGGUCGCCUAGAUGUUA [whbob_Ex_Arginine_B_2th165] | 374 nM | 217 nM | 395 nM | 194 nM | 290 nM
AGUGAUGUUGUGUUAUCUUAGUGAAGUGAUCGAGGACCGGUACGGCCGCCACUCGAGUGAUGAGUGAGUGAUGUUUGUUUAGGGA [vvbmullin] | 818 nM | 673 nM | 1080 nM | 931 nM | 561 nM
AGUGAUGUUGUGUUAUGCAAGGGAAGUGAUCGAGGACCGGUACGGCCGCCACUCGAGUGAUGAGUGAGUGAUGUUUGUUUAGGGA [ffgmullin] | 1180 nM | 451 nM | 933 nM | 883 nM | 401 nM
AGUGAUGUUGUGUUAUGUUUGGGAAGUGAUCGAGGACCGGUACGGCCGCCACUCGAGUGAUGAGUGAGUGAUGUUUGUUUAGGGA [whbob_SS_Tryp_A_m9] | 1060 nM | 698 nM | 962 nM | 1120 nM | 498 nM
AGUGGACGUGUUCGGAGUGAUGUUCCGGAUACCAGACACGAAAGUGUCCCUUGGCAGCCGGAGUGAUGUUCCGGCGUUCACUAAA [Omei KL Theo A Exc B v2] | 646 nM | 311 nM | 538 nM | 533 nM | 439 nM
AGUGUACAGUCGGCCGCCACUCACUCCUCCUGCGUUAACGAGUGAUGUUUGUUUUUUAGUGGUACGAGGACCGGGACUUCUCUGA [theeternabot_sameState_KL_Trp_B_35] | 237 nM | 118 nM | 275 nM | 245 nM | 260 nM
AGUUCAGAGUGACUCGAUAAGAGUCACAAACGAGGACCGGUACGGCCGCCACUCGAAAUAACGAGAGUGAUGUUCUCGCUGGGCA [FiskerMod 2 - Jieux - Same State Tryptophan A] | 726 nM | 674 nM | 862 nM | 824 nM | 244 nM
AGUUUAGAGUGACUCGAUAAGAGUCACAAACGAGGACCGGUACGGCCGCCACUCGAAAUAACGAGAGUGAUGUUCUCGCUGGGCA [FiskerMod 3 - Jieux - Same State Tryptophan A] | 332 nM | 377 nM | 458 nM | 384 nM | 126 nM
AUAAACUUGCAGUGAUGUUGCAAGUAAGACUAGGAUAUCAGGAAACUGAGAAGGAGUCAUCUCCUUCACUUGCAACUAGGAGGAG [[K1]-[K2]-[F1]-[F2]-[F]'-[K]'-[F]''_Design6] | 122 nM | 93.4 nM | 143 nM | 144 nM | 133 nM
AUAAUAAAGACGGCCGCCACUGAGAGUAGUGAUGUUACUCUUUUCCUUUAGAAAUAAUAUUUUAUCAGGACCGGGUUUUUUGAAU [JR_Nu_ExcTryptoB_Sub026] | 95.3 nM | 81.1 nM | 84.8 nM | 79.6 nM | 92 nM
AUAAUUAUAUAGAAAUAUAUAAUUAUAUAACGAGGACCGGUACGGCCGCCACUCGUGCCGGGCAUAAAAUGAGUGAUGUUCAUGU [KL-XTryp-A7 #analogue] | 205 nM | 228 nM | 212 nM | 193 nM | 198 nM
AUACGUUUCAGAGGAUAUCGGAGGAGAGUGAUGUUCUCCCAUAGCCCAGUGAUGUUGGAAGCUAUCCGAGAAGGCUGUGGGCGUA [Same State FMN B GF 15] | 145 nM | 174 nM | 186 nM | 179 nM | 179 nM
AUCGUUGUCUGAGGAUAUCGGUUAUCUGUAGUGAUGUUACAGUAUAUUCAUAUUAUACUUUCUAUUCGAGAAGGCAGACUACGUA [JR_Nu_ExcFMNB_Sub020] | 169 nM | 80.5 nM | 82.5 nM | 74.8 nM | 82.9 nM
AUCGUUGUCUGAGGAUAUCGUUUUACUGUAGUGAUGUUACAGAAAAUUCACAUUAUAAUUUCUAUUCGAGAAGGCAGACUACGUA [JR_ExcFMNB_Sub015] | 134 nM | 112 nM | 120 nM | 114 nM | 120 nM
